In paper PMC4466140, “Evolution of the SH3 Domain Specificity Landscape in Yeasts” (PLoS ONE, 2015):

How the values were obtained:
Experiment in all cases: peptide or protein array; SPOT: 15-mer peptides on cellulose (CAPE) membrane; GST-SH3 domains at 10 μg/ml overnight at 4°C in blocking buffer (TBS, 50 mM Tris/HCl pH 7.6, 150 mM NaCl, Blocking Buffer, 0.15 M sucrose); detected with anti-GST antibody and HRP conjugate
Settings in all cases: both partners purified
[1] = target: T1, GST-tagged S. cerevisiae Rvs167 SH3 domain (S. cerevisiae, UniProt P39743 421-482)
T1 construct: Rvs167, S. cerevisiae, SH3 domain; also called ScRvs167; source: E. coli BL21(DE3), purified (glutathione Sepharose 4B); not shown: GST, N-terminal, kept
T1 sequence (P39743 421-482): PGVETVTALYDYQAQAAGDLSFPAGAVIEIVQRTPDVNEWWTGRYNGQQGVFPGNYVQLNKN

[2] = target: T2, GST-tagged C. albicans Rvs167 SH3 domain (C. albicans, UniProt Q59LF3 382-440)
T2 construct: Rvs167 of Candida albicans, SH3 domain; also called CaRvs167; source: E. coli BL21(DE3), purified (glutathione Sepharose 4B); not shown: GST, N-terminal, kept
T2 sequence: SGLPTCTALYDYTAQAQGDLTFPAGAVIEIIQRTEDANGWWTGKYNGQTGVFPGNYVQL

[3] = target: T3, GST-tagged S. pombe Rvs167 (Hob1) SH3 domain (S. pombe, UniProt O74352 407-466)
T3 construct: Rvs167 homolog of S. pombe, called Hob1, SH3 domain; also called SpRvs167; source: E. coli BL21(DE3), purified (glutathione Sepharose 4B); not shown: GST, N-terminal, kept
T3 sequence (looked up): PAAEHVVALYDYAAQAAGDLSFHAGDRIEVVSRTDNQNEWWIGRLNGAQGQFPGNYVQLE

Measured: binding result

B1: Type II peptide #66 (SPOT membrane) (peptide)
peptide: SSSSTPPTLPPRRIE
notes: 15-mer of the SH3-SPOT library mined from the S. cerevisiae proteome; In the SPOT library all cysteines were replaced by serines; source: synthetic peptide, SPOT synthesis on cellulose (CAPE) membrane
binds: all assays above
